This note sets out measurements from patent publication EP4717714A1 (Shanghai Junshi Biosciences Co., Ltd., dated 2026).

The target of test [1] is T1, Recombinant human VEGFA (Sino Biological, catalog number 11066-HNAB) (human).
T1 construct: also called VEGF antigen; Human/Cynomolgus VEGF/VEGFA/VEGF165 Protein
T1 chain: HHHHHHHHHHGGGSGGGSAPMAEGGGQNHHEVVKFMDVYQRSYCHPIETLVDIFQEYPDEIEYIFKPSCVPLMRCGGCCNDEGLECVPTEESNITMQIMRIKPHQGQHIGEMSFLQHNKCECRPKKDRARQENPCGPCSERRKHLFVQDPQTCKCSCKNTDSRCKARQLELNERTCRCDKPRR
Description: indirect ELISA on coated human VEGF; stability sample, 5°C, 2 week.

Test [2] has as its target T1, Recombinant human VEGFA (Sino …). Description: indirect ELISA on coated human VEGF; sample in human serum, 37°C, 4 week.
For test [3] the target is unchanged. The experiment in a line: indirect ELISA, human VEGFA coated at 0.5 µg/mL (FIG. 7a).
The target is the same in test [4]. The experiment in a line: indirect ELISA on coated human VEGFA, relative to Avastin control.
Test [5] concerns the target T2, Recombinant human PD-1 (prepared by Suzhou Junmeng Biopharm Co., Ltd. according to the sequence of NCBI … (human, UniProt Q15116 25-170, limits assumed)).
T2 construct: Soluble recombinant protein used in BLI and coated in ELISA; also called antigen PD-1
Description: indirect ELISA on coated human PD-1; stability sample, 5°C, 4 week.

Test [6] concerns the target T1, Recombinant human VEGFA (Sino …). The experiment in a line: BLI (Octet RED96e), told of the group.
For test [7], the target named is T2, Recombinant human PD-1 (prepared by …). The experiment in a line: indirect ELISA on coated human PD-1; sample in human serum, 37°C, 2 week.
Test [8] concerns the target T1, Recombinant human VEGFA (Sino …). Description: indirect ELISA on coated human VEGF; sample in human serum, 37°C, 0 week.
Test [9] shares this target. Description: indirect ELISA on coated human VEGF; sample in human serum, 37°C, 2 week.
Test [10] shares this target. Description: BLI (Octet RED96e), antibody captured at 5 µg/mL, VEGFA at 50 and 25 nM.
Test [11] has the same target. Description: indirect ELISA on coated human VEGF; stability sample, 5°C, 0 week.
The target is the same in test [12]. Description: indirect ELISA on coated human VEGF; stability sample, 5°C, 4 week.
In test [13] the target is T2, Recombinant human PD-1 (prepared by …). Description: BLI (Octet RED96e), antibody captured at 5 µg/mL, PD-1 at 210 and 70 nM.
Test [14] has the same target. The experiment in a line: indirect ELISA on coated human PD-1, relative to TAB001 (JS001) control.
Test [15] has the same target. The experiment in a line: competitive ELISA against PD-L1 hFc on coated PD-1, relative to TAB001 (JS001) control.
Test [16] addresses T1, Recombinant human VEGFA (Sino …). Description: cell-based or functional assay.
For test [17], the target named is Human PD-1 on the cell surface (Jurkat PD-1 effector cells, Promega); CD4 T cells in the mixed lymphocyte … (human, UniProt Q15116 25-288). Description: cell-based or functional assay.
The target in test [18] is T2, Recombinant human PD-1 (prepared by …). The experiment in a line: indirect ELISA on coated human PD-1; sample in human serum, 37°C, 4 week.
Test [19] addresses T1, Recombinant human VEGFA (Sino …). The experiment in a line: competitive ELISA against VEGFR2 on coated VEGFA, relative to Avastin control.
The target in test [20] is T2, Recombinant human PD-1 (prepared by …). Description: indirect ELISA on coated human PD-1; stability sample, 5°C, 0 week.
For test [21] the target is unchanged. Description: competitive ELISA, PD-1 coated, competitor Biotin-PD-L1 hFc at 4.0 µg/mL (FIG. 9a).
The target is the same in test [22]. Description: indirect ELISA, human PD-1 coated at 0.3 µg/mL (FIG. 6a).
In test [23] the target is T1, Recombinant human VEGFA (Sino …). The experiment in a line: competitive ELISA, VEGFA coated, competitor biotinylated VEGFR2 at 0.3 µg/mL (FIG. 8a).
Test [24] has as its target T2, Recombinant human PD-1 (prepared by …). The experiment in a line: indirect ELISA on coated human PD-1; sample in human serum, 37°C, 0 week.
For test [25] the target is unchanged. The experiment in a line: indirect ELISA, human PD-1 coated at 0.3 µg/mL (FIG. 6b).
Test [26] shares this target. Description: competitive ELISA, PD-1 coated, competitor Biotin-PD-L1 hFc at 4.0 µg/mL (FIG. 9b).

B1: Bispecific antibody molecule 23 (bispecific antibody, human IgG4 S228P, kappa)
light: DVVMTQSPLSLPVTLGQPASISCRSSQSIVHSNGNTYLEWYLQKPGQSPQLLIYKVSNRFSGVPDRFSGSGSGTDFTLKISRVEAEDVGVYYCFQGSHVPLTFGQGTKLEIKRTVAAPSVFIFPPSDEQLKSGTASVVCLLNNFYPREAKVQWKVDNALQSGNSQESVTEQDSKDSTYSLSSTLTLSKADYEKHKVYACEVTHQGLSSPVTKSFNRGEC
heavy: not shown
notes: expressed in CHO-K1; also called Antibody 23; antibody 23 (IgG4)
For B1, the “Binding activity (%), VEGF end” value in test [1] is 104%; in [2], 79%; in test [8] it was 98%; in test [9], 96%; in [11] it was 99%; in test [12], 81%. Also, the 50% effective concentration (EC50) worked out at 2.05 nM in test [3] and 6.93 nM in [22]. In addition, the “Relative binding activity (%)” value in test [4] was 175%; in [14], 52%; in [15], 46%; in test [19] it was 97%. Also, the “Binding activity (%), PD-1 end” value in test [5] came out at 97%; in [7] it was 95%; in [18] it was 82%; in test [20], 105%; in [24], 121%. Besides, the Kd is less than 0.5 nM in test [6], less than 0.0186 nM in test [10] and 1.73 nM in test [13]. The koff in test [10] is less than 1e-05 s⁻¹; in test [13] it was 7.73e-05 s⁻¹. In addition, the on-rate (kon) in [10] came to 538000 M⁻¹ s⁻¹; in test [13], 44800 M⁻¹ s⁻¹. Further, in test [16], the “IC50, VEGFA-induced proliferation of HUVEC cells” value was found to be 81.1 nM. The “EC50, PD-1/PD-L1 luciferase reporter gene system (Jurkat PD-1 / CHO PD-L1)” value in test [17] is 11.9 nM. Further, the figures for the IC50 in test [21] and in [23] were 293 nM and 679 nM, respectively.

B2: Bispecific antibody molecule 24 (bispecific antibody, human IgG4 S228P, kappa)
light: DVVMTQSPLSLPVTLGQPASISCRSSQSIVHSNGNTYLEWYLQKPGQSPQLLIYKVSNRFSGVPDRFSGSGSGTDFTLKISRVEAEDVGVYYCFQGSHVPLTFGQGTKLEIKRTVAAPSVFIFPPSDEQLKSGTASVVCLLNNFYPREAKVQWKVDNALQSGNSQESVTEQDSKDSTYSLSSTLTLSKADYEKHKVYACEVTHQGLSSPVTKSFNRGEC
heavy: not shown
notes: Anti-PD-1 IgG4 (JS001) with the anti-VEGF VHH at the C-terminus of each heavy chain; also called Antibody 24; antibody 24 (IgG4)
Turning to B2, the “Binding activity (%), VEGF end” value stood at 85% in test [1]; 95% in test [2]; 104% in test [8]; 81% in test [9]; 100% in test [11]; 102% in [12]. Further, the EC50 is 13.2 nM in [3] and 14.6 nM in [22]. The “Relative binding activity (%)” value stood at 27% in [4], 25% in test [14], 55% in test [15] and 61% in test [19]. Besides, the “Binding activity (%), PD-1 end” value in [5] stood at 86%; in [7] it was 63%; in test [18], 89%; in test [20] it was 94%; in test [24], 106%. For the same molecule, the figures for the Kd in test [6], in [10] and in test [13] were less than 0.5 nM, 0.191 nM and 1.21 nM, respectively. Besides, the values for the koff in [10] and in test [13] were 7.92e-05 s⁻¹ and 9.38e-05 s⁻¹, respectively. The kon in [10] was 414000 M⁻¹ s⁻¹; in [13], 77600 M⁻¹ s⁻¹. In test [16], the “IC50, VEGFA-induced proliferation of HUVEC cells” value was 88 nM. For the same molecule, the “EC50, PD-1/PD-L1 luciferase reporter gene system (Jurkat PD-1 / CHO PD-L1)” value in [17] worked out at 8.17 nM. The IC50 in test [21] came out at 243 nM; in test [23] it was 1080 nM.

B3: JS001 (recombinant humanized anti-PD-1 monoclonal antibody reference article, Toripalimab) (antibody, human IgG4 S228P, kappa, V domains shown)
VH: QGQLVQSGAEVKKPGASVKVSCKASGYTFTDYEMHWVRQAPIHGLEWIGVIESETGGTAYNQKFKGRVTITADKSTSTAYMELSSLRSEDTAVYYCAREGITTVATTYYWYFDVWGQGTTVTVSS
VL: DVVMTQSPLSLPVTLGQPASISCRSSQSIVHSNGNTYLEWYLQKPGQSPQLLIYKVSNRFSGVPDRFSGSGSGTDFTLKISRVEAEDVGVYYCFQGSHVPLTFGQGTKLEIKR
notes: also called TAB001; anti-PD-1 monoclonal antibody JS001
In the case of B3, in test [25], the EC50 was 18.3 nM. Further, in test [13], the Kd worked out at 0.584 nM, the koff worked out at 3.93e-05 s⁻¹ and the kon is 67300 M⁻¹ s⁻¹. In addition, the IC50 in test [26] stood at 255 nM. Besides, in [21], the IC50 was determined as 135 nM. The EC50 in test [22] was 3.6 nM.
